Assay results: PMC10030653, “ClpC2 protects mycobacteria against a natural antibiotic targeting ClpC1-dependent protein degradation” (Communications Biology, 2023)

Tests used:
[1] = biological target: cyclomarin A (Streptomyces sp. CNB-982); assay: ITC; 50 uM (monomer) ClpC1 NTD or ClpC2 titrated into 5 uM CymA at 37 C; 50 mM HEPES-KOH pH 7.5, 150 mM KCl, 9% DMSO, 1 mM EDTA; one-site binding model
[2] = test system: DNA probe containing the clpC2 operator site; assay: EMSA, ClpC1 binding to DNA
[3] = test system: ClpC1 NTD; conditions: cited from earlier work
[4] = biological target: ClpC1 (Mycobacterium tuberculosis, UniProt P9WPC9 1-848); assay: EMSA; 1-25 uM ClpC1, 0.5 nM DNA; EMSA: 5 mM HEPES-KOH pH 7.5, 30 mM KCl, 1% glycerol, 10 mM MgCl2, room temperature 20 min, 12% polyacrylamide gel; conditions: protein: recombinant; tags: untagged; label: 5'-FAM; blunt
[5] = biological target: T1, ClpC2 WT (Mycobacterium tuberculosis, UniProt P9WPC7 1-252); assay: EMSA; 1-25 nM ClpC2, 0.5 nM DNA, no CymA; EMSA: 5 mM HEPES-KOH pH 7.5, 30 mM KCl, 1% glycerol, 10 mM MgCl2, room temperature 20 min, 12% polyacrylamide gel; conditions: protein: recombinant; tags: untagged; chain copies: 2; label: 5'-FAM; blunt
T1 sequence: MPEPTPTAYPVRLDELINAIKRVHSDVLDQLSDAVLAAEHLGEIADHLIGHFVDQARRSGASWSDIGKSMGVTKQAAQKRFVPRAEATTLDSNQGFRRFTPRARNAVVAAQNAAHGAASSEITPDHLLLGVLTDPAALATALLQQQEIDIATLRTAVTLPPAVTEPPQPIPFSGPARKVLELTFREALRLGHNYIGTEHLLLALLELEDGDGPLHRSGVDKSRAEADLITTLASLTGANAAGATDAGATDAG

Chain of ClpC1 (P9WPC9 whole entry): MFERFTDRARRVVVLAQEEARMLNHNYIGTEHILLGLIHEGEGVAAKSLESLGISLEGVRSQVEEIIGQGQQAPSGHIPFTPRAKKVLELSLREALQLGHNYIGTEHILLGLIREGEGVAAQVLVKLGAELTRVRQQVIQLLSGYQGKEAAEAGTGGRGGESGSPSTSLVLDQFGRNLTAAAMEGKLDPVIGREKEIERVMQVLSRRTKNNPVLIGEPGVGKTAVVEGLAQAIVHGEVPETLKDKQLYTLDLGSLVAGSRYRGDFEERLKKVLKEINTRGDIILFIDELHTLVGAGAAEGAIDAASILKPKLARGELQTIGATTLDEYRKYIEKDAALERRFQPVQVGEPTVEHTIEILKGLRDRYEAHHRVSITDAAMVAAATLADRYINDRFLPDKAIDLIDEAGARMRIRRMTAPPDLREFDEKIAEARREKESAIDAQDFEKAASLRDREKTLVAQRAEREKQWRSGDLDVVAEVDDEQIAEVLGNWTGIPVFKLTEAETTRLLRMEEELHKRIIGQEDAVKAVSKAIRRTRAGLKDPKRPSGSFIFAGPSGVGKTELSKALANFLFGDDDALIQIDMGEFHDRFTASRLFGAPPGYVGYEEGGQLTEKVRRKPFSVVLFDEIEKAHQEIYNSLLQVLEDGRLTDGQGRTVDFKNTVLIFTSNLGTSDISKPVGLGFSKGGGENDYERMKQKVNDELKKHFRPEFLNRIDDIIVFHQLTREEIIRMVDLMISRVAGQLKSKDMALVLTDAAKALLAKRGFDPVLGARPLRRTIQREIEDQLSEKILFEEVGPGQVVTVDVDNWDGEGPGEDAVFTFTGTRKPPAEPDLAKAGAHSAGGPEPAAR

Work on “ClpC1 N-terminal domain, residues 1-145 (ClpC1 NTD) (from UniProt P9WPC9 1-145) (domain or fragment)” yielded a Kd [1] of 2.3 nM.

In the case of “ClpC1: AAA+ chaperone ClpC1, purified Mtb protein”, the “affinity of ClpC1 for DNA relative to ClpC2” value ([2]; EMSA) is reported as “at least two orders of magnitude lower affinity than exhibited by ClpC2”, the “sequence specificity of ClpC1 for clpC2 operator site” value ([2]; EMSA with unlabelled competitor DNA) is reported as “little sequence specificity for the clpC2 operator site” and the “KD, ClpC1 to DNA” value ([2]; EMSA, 1-25 µM ClpC1, 0.5 nM DNA probe with clpC2 operator site) is reported as “low micromolar range”.

Work on “Mycobacterium tuberculosis ClpC2 (full length, wild type) (natural protein)” yielded a Kd [1] of 2.2 nM and a stoichiometry N [1] of 1.

For ecumicin, the target binding domain [3] is given as “specifically target ClpC1 NTD”.

For lassomycin, the target binding domain [3] is listed as “specifically target ClpC1 NTD”.

B1: clpC2_FAM_EMSA 41 bp operator probe (dsDNA)
DNA 1: ACAATGCATAACGTCAACCTACTGTTGACGTCATGCCGGAG
DNA 2: CTCCGGCATGACGTCAACAGTAGGTTGACGTTATGCATTGT
B1: binds [4]; binds [5].
